Holding throughout (format): cell-based
The subject of series [1] is Articular cartilage explants from calf carpal joints. In words: Articular cartilage assay (proteoglycan synthesis, sulfate incorporation). The method, then: The effect of BMP-9 on articular cartilage proteoglycan and DNA synthesis is assayed to determine if BMP-9 is involved in the regulation of metabolism of differentiated articular cartilage.
Articular cartilage explants from calf carpal joints are maintained in DMEM with 50 μg/ml ascorbate, 4 mM glutamine and antibiotics for 3 days. Cytokines (rhBMP-2, rhBMP-4, rhBMP-6 and rhBMP-9, IGF-1, bFGF (1-1000 ng/ml), and TGFβ (1-100 ng/ml)) are added to the medium and culture is continued for 3 more days. Medium is changed daily. Twenty-four hours prior to harvest, explants are pulsed with 50 μCi/ml ^35 SO4 or 25 μCi/ml ^3 H-thymidine. Explants are solubilized and separation of free isotope is performed by gel chromatography. Total DNA of each explant is measured by a spectrophotometric assay.

The test system of another series is W-20-17. In words: Alkaline phosphatase activity in W-20-17 osteoprogenitor cell line. Conditions: dose responsive. The method, then: W-20 cells are plated into 96 well tissue culture plates at a density of 10,000 cells per well in 200 μl of media (DME with 10% heat inactivated fetal calf serum, 2 mM glutamine and 100 U/ml+100 μg/ml streptomycin. The cells are allowed to attach overnight in a 95% air, 5% CO2 incubator at 37° C.
The 200 μl of media is removed from each well with a multichannel pipettor and replaced with an equal volume of test sample delivered in DME with 10% heat inactivated fetal calf serum, 2 mM glutamine and 1% penicillin-streptomycin. Test substances are assayed in triplicate.
The test samples and standards are allowed a 24 hour incubation period with the W-20 indicator cells. After the 24 hours, plates are removed from the 37° C. incubator and the test media are removed from the cells.
The W-20 cell layers are washed 3 times with 200 μl per well of calcium/magnesium free phosphate buffered saline and these washes are discarded.
50 μl of glass distilled water is added to each well and the assay plates are then placed on a dry ice/ethanol bath for quick freezing. Once frozen, the assay plates are removed from the dry ice/ethanol bath and thawed at 37° C. […]
The spectrophotometric absorbance for each well is read at a wavelength of 405 nanometers. […] For example, using known amounts of p-nitrophenol phosphate, absorbance values are generated.

For the next series, the system named is IMCD-3 cells. In words: IMCD-3 cell condensation and tubulogenesis in collagen matrix. The conditions noted are these: IMCD-3 cells in 3-dimensional collagen gel, 100 ng/ml, 6 days, serum-free. The method, then: (§1) Several cell lines are tested for BMP-9 responsiveness in vitro. Cell proliferation, as indicated by [^3 H]thymidine incorporation, is determined in cell lines derived from kidney and lung. Cell proliferation is determined by measuring [^3 H]thymidine incorporation in subconfluent cells treated for 24 h with or without growth factors. NRK-52E (ATCC CRL 1571), WI-38 (ATCC CCL-75), CCD-11Lu (ATCC CCL-202), CCD-16Lu (ATCC CCL-204), and A-549 (ATCC CCL-185) cell lines are placed at 10^4 cells/well in 96 well plates and assayed for [^3 H]thymidine incorporation as described above. IMCD-3 cells (ATCC #CRL-2123) are cultured in a collagen matrix as described by Barros et al., PNAS USA 92:4412-4416 (1995), and treated with growth factors for 6 days to allow tubule formation.
In contrast, BMP-9 appeared to stimulate proliferation in several fibroblast cell lines derived from lung. […] The effect of rhBMP-9 on tubulogenesis was examined in IMCD-3 cells, another epithelial kidney cell line. […] It is therefore contemplated that both lung and kidney cells are physiological targets for BMP-9.

For a further series, the system named is primary rat hepatocytes. In words: Primary rat hepatocyte 3H-thymidine incorporation. As to the method: As a first indication of BMP-9 effects on confluent, serum starved HepG2 cells, cell proliferation is examined as determined by ^3 H-thymidine incorporation and cell counting. HepG2 cells are plated at […] in 96 well plates and cultured for 48 hours in DME/0.1% FCS to synchronize the cell cycle are treated for 24 hours with or without BMP-9 in the presence of 0.1% FCS. In ^3 H-thymidine incorporation assays, ^3 H-thymidine was included during the last 4 hours of treatment and cellular DNA was collected with a 96 well plate cell harvester. Proliferation was assayed by quantifying ethanol-precipitable ^3 H-thymidine incorporation by liquid scintillation counting. For cell counting assays, cells were trypsinized and counted with a hemacytometer. […] BMP-9 stimulates ^3 H-thymidine incorporation in HepG2 cells approximately five fold.
To determine if this proliferative effect of BMP-9 was unique to the HepG2 liver tumor cell line, primary rat hepatocytes were tested for effects of BMP-9 on ^3 H-thymidine incorporated as shown in FIG. 4.
(Dividing cells build labelled thymidine or BrdU into new DNA.)

The subject of another series is WI-38 cells. The series is described as follows: Cell proliferation, [3H]thymidine incorporation, WI-38. Conditions: high doses of rhBMP-9, 24 h. The method, then:
as §1

Another series deals with HepG2 cells. The series is described as follows: HepG2 cell proliferation (3H-thymidine incorporation, cell counting). The method, then: As a first indication of BMP-9 effects on confluent, serum starved HepG2 cells, cell proliferation is examined as determined by ^3 H-thymidine incorporation and cell counting. HepG2 cells are plated at […] in 96 well plates and cultured for 48 hours in DME/0.1% FCS to synchronize the cell cycle are treated for 24 hours with or without BMP-9 in the presence of 0.1% FCS. In ^3 H-thymidine incorporation assays, ^3 H-thymidine was included during the last 4 hours of treatment and cellular DNA was collected with a 96 well plate cell harvester. Proliferation was assayed by quantifying ethanol-precipitable ^3 H-thymidine incorporation by liquid scintillation counting. For cell counting assays, cells were trypsinized and counted with a hemacytometer. Primary rat hepatocytes isolated from male Fischer 344 rats (Charles River, Wilmington, Mass.) by collagenase digestion as previously described [Michalopoulos et al., Cancer Res. 42:4673-4682 (1982)] are plated on collagen-coated plates at subconfluence (5,000-10,000 cells/cm^2) in serum-free media as described in Michalopoulos et al., Cancer Res. 42:4673-4682 (1982) and treated with or without rhBMP-9 for 36 hours. ^3 H-thymidine was included throughout the treatment period and incorporated ^3 H-thymidine was quantified as described by Anscher et al., New England J. Med. 328:1592-1598 (1993). BMP-9 stimulates ^3 H-thymidine incorporation in HepG2 cells approximately five fold.

The values that follow come from patent publication US6034062A, “Bone morphogenetic protein (BMP)-9 compositions and their uses” (Genetics Institute, Inc., priority 1997, dated 2000).

B1: BMP-9: recombinant human bone morphogenetic protein-9, mature amino acids #1-#110 of SEQ ID NO:9, expressed in CHO cells (protein)
chain: TRECSRSCPRTAPQRQVRAVTRRTRMAHVAAGSTLARRKRSAGAGSHCQKTSLRVNFEDIGWDSWIIAPKEYEAYECKGGCFFPLADDVTPTKHAIVQTLVHLKFPTKVG
modifications: 125I-iodinated as tracer; unlabelled BMP-9 used as the displacing ligand
As for B1, the proteoglycan synthesis entry in series [1] (100 ng/ml, calf articular cartilage explants) is given as “significantly more active in stimulating proteoglycan synthesis”. In series [1] (dose of 10 ng/ml, p<0.05, calf articular cartilage explants), the “proteoglycan synthesis versus control” value was “stimulates proteoglycan synthesis above control levels”. Further, in the series on W-20-17, the “ED50, stimulation of alkaline phosphatase activity” value turned out to be 4 ng/mL. The “cell condensation and tubulogenesis” value with IMCD-3 cells is “did not induce tubules and inhibited the cell condensations and tubule formation observed under control conditions”. The 3H-thymidine incorporation entry is recorded as “confluent primary hepatocytes did not” in the series on primary rat hepatocytes (confluent primary rat hepatocytes) and “stimulated ^3 h-thymidine incorporation in primary hepatocytes, although not as markedly as EGF” with primary rat hepatocytes (subconfluent primary rat hepatocytes, 36 hours, serum-free). Moreover, in the series with WI-38 cells, the “cell proliferation ([3H]thymidine incorporation)” value was “statistically significant stimulation”. Moreover, in the series on HepG2 cells (HepG2 cells, estimated), the “ED50, stimulation of 3H-thymidine incorporation” value was 10 ng/mL. Besides, the cell counting entry in the series on HepG2 cells (HepG2 cells, treated 24 hours) was “stimulatory effect”. Moreover, the “stimulation of 3H-thymidine incorporation” value with HepG2 cells (confluent, serum starved HepG2 cells, treated 24 hours, 0.1% FCS) was “approximately five”.
